± gives the standard error. Fewer inactive variants are shown than the library holds.
B1: glmS ribozyme (parent)
chain: AUAAAAGCGCCAGAACUACAGAAAUGUAGUUGACGAGGAGGAGGUUUAUCGAAUUUUCGGCGGAUGCCUCCAAA

Variants of: B1
Experiment: self-cleavage kobs at 2500 uM GlcN6P; higher = faster cleavage; RNA array
Conditions: with glucosamine-6-phosphate
Procedure, shortened: (§1)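 Barcoded ribozyme variants, transcribed in situ by E. coli RNA polymerase on sequenced MiSeq chips, were followed via a hybridised Cy3 probe at 37 °C. Glucosamine-6-phosphate ranged from 40 μM to 10 mM in HEPES/KCl/Mg(OAc)2 buffer. kobs came from decay fits to per-tile medians, and kcat and KM from weighted Michaelis–Menten fits.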

AUAAAAGCGCCAGAACUACAGAAAUGUAGUUCACGAGGAGAAGGUUUAUCGAAUUUUCGGCGAAUGCCUUCAAA [G32C G41A G63A C70U] and AUAAAAGCGCCAGAACUACAGAAAUGUAGUUGCCGAGAAGGAGGUUUAUCGAAUUUUUGGCGGACGCCUCCAAA [A33C G38A C58U U65C] cannot be ordered by “self-cleavage kobs at 2500 uM GlcN6P” value: under 1e-05 s⁻¹ for the first, under 1e-05 s⁻¹ for the second.

Compared with AUAAAAGCGCCAGAACUACAGAAAUGUAGUUCACGAGAAGGAGGUUAAUCGAAUUUUUGGCGGCUGCCGCCAAA [G32C G38A U47A C58U A64C U69G], AUAAAAGCGCCAGAACUACAGAAAUGUAGUUCACGAGGAGGAGGUUUAUCGAACUUUCGGCGGAUGCCUCCAAA [G32C U54C] is 11-fold lower in “self-cleavage kobs at 2500 uM GlcN6P” value: 0.000153 ± 4.8e-05 s⁻¹ for the first, 1.41e-05 ± 5.6e-06 s⁻¹ for the second.

AUAAAAGCGCCAGAACUACAGAAAUGUAGUUGCCGAGGAGGAGGUUUAUCGACUUUUCGGGGGAUGCCUCCAAA [A33C A53C C61G] and AUAAAAGCGCCAGAACUACAGAAAUGUAGUUCACGUGGAGGAGGUUUAUCGACUUUUCGGCGGAUGCCUCCAAA [G32C A36U A53C] cannot be ordered by “self-cleavage kobs at 2500 uM GlcN6P” value: under 1e-05 s⁻¹ for the first, under 1e-05 s⁻¹ for the second.

AUAAAAGCGCCAGAACUACAGAAAUGUAGUUCACGAGGAGGAGGUUUAUUGAAUUUUGGGCGGAUGCCUCCAAA [G32C C50U C58G] and AUAAAAGCGCCAGAACUACAGAAAUGUAGUUGCCGAGGAAGACGUUUAUCGCAUUUUCGGCGGAUGCCUCCAAA [A33C G40A G43C A52C] cannot be ordered by “self-cleavage kobs at 2500 uM GlcN6P” value: under 1e-05 s⁻¹ for the first, under 1e-05 s⁻¹ for the second.

AUAAAAGCGCCAGAACUACAGAAAUGUAGUUCACGAGGAGGAGGUUUAUCUAAUUCUCGGCGGAUGCCUCCAAA [G32C G51U U56C] and AUAAAAGCGCCAGAACUACAGAAAUGUAGUUCACGACGAGGAGGUUUAUAGAAUUUUCGCCGGAUGCCUCCAAA [G32C G37C C50A G60C] cannot be ordered by “self-cleavage kobs at 2500 uM GlcN6P” value: under 1e-05 s⁻¹ for the first, under 1e-05 s⁻¹ for the second.

AUAAAAGCGCCAGAACUACAGAAAUGUAGUUUACGAGGAGGAGGUCUAUCGAAUUUUCGGCGGAUGCAUCUAAA [G32U U46C C68A C71U] and AUAAAAGCGCCAGAACUACAGAAAUGUAGUUGCCUAGGAGGAGGUUUAUCGAAUUUCCGGCGGAUGCCUCCAAA [A33C G35U U57C] cannot be ordered by “self-cleavage kobs at 2500 uM GlcN6P” value: under 1e-05 s⁻¹ for the first, under 1e-05 s⁻¹ for the second.

AUAAAAGCGCCAGAACUACAGAAAUGUAGUUCACGAGGAGGAGGUUUUUCGAAUUUUCGGCGGAUGCUUCCAAA [G32C A48U C68U] and AUAAAAGCGCCAGAACUACAGAAAUGUAGUUGCCGUGCAGGAGGUUUAUCGAAUUUUCGGCGGAUGCCUCCAAA [A33C A36U G38C] cannot be ordered by “self-cleavage kobs at 2500 uM GlcN6P” value: under 1e-05 s⁻¹ for the first, under 1e-05 s⁻¹ for the second.

Compared with AUAAAAGCGCCAGAACUACAGAAAUGUAGUUUACGAGGAGGAGGUUUAUCGAACUUUCCGCGGAUGCUUCCAAA [G32U U54C G59C C68U], AUAAAAGCGCCAGAACUACAGAAAUGUAGUUUACGAGGAGGGGGUUUAUCGAAUUUUGGGCGGAUGCCUUCAAA [G32U A42G C58G C70U] is higher in “self-cleavage kobs at 2500 uM GlcN6P” value: under 1e-05 s⁻¹ for the first, 0.000198 ± 8.4e-05 s⁻¹ for the second.

AUAAAAGCGCCAGAACUACAGAAAUGUAGUUCACGAGGAGGAGACUUAUCGAAUUUUCGGCGGAUGCCUCCAAA [G32C G44A U45C] and AUAAAAGCGCCAGAACUACAGAAAUGUAGUUCACGAGGAGGAGGUUUAUCGAAGUUUCGGCGGUUGCCUCCAAA [G32C U54G A64U] cannot be ordered by “self-cleavage kobs at 2500 uM GlcN6P” value: under 1e-05 s⁻¹ for the first, under 1e-05 s⁻¹ for the second.

AUAAAAGCGCCAGAACUACAGAAAUGUAGUUGCCGCGUAGAAGGUUUAUCGAAUUUUCGGCGGAUCCCUCCAAA [A33C A36C G38U G41A G66C] and AUAAAAGCGCCAGAACUACAGAAAUGUAGUUGCCGAUGAGGGGUUUUAUCGAAUUUUCGGCGGGUUCCUCCAAA [A33C G37U A42G G44U A64G G66U] cannot be ordered by “self-cleavage kobs at 2500 uM GlcN6P” value: under 1e-05 s⁻¹ for the first, under 1e-05 s⁻¹ for the second.

Going from AUAAAAGCGCCAGAACUACAGAAAUGUAGUUAACGAGGAGGAGGUUUAUCGAAAUUUCGGCGGAUGCCUGCAAA [G32A U54A C70G] to AUAAAAGCGCCAGAACUACAGAAAUGUAGUUCUCGAGGAUGAGGUUUAUCGAAUUUUCGGCGGAUGCCUCCAAA [G32C A33U G40U], the “self-cleavage kobs at 2500 uM GlcN6P” value falls from 0.000378 ± 5.3e-05 s⁻¹ to under 1e-05 s⁻¹.

Going from AUAAAAGCGCCAGAACUACAGAAAUGUAGUUAACGAGGAGGAGGCUUAUCGGAUUUUCGGCGGAUGCCUCCAAA [G32A U45C A52G] to AUAAAAGCGCCAGAACUACAGAAAUGUAGUUCACGAGGAGGAGGUUUAUGGAAUUUUCGGCGGAUGGCUCCAAA [G32C C50G C67G], the “self-cleavage kobs at 2500 uM GlcN6P” value rises from under 1e-05 s⁻¹ to 4.82e-05 ± 1.8e-05 s⁻¹.

First: AUAAAAGCGCCAGAACUACAGAAAUGUAGUUAACGAGGAGGAUGUUUAUCGAAUUUUCGGCGGAUACGUCCAAA [G32A G43U G66A C68G]
Second: AUAAAAGCGCCAGAACUACAGAAAUGUAGUUUACGAGGAGGAGGUUUCUCCAAUUUUCGGCGGAUGCCUCCAAA [G32U A48C G51C]
The “self-cleavage kobs at 2500 uM GlcN6P” value of the first is higher: 0.00088 ± 0.0003 s⁻¹ for the first, under 1e-05 s⁻¹ for the second.

Compared with AUAAAAGCGCCAGAACUACAGAAAUGUAGUUGCCGAGGAGGAGGUUUAGCGAAUUUUCGGCGGAUGCCCCCAAA [A33C U49G U69C], AUAAAAGCGCCAGAACUACAGAAAUGUAGUUCACGAGGAGGAGGUUUAUGGAAUAGCCGGCGGAUGCCUCCAAA [G32C C50G U55A U56G U57C] is higher in “self-cleavage kobs at 2500 uM GlcN6P” value: under 1e-05 s⁻¹ for the first, 0.000162 ± 5.8e-05 s⁻¹ for the second.

AUAAAAGCGCCAGAACUACAGAAAUGUAGUUUACGAGGAGGAGGUAUAUUGAAUUUUCGGCGGAUGCCUCCAAA [G32U U46A C50U] and AUAAAAGCGCCAGAACUACAGAAAUGUAGUUUACGAGGAGGCGGUUUAUCGACUAUUCGGCGGAUGCCUCCAAA [G32U A42C A53C U55A] cannot be ordered by “self-cleavage kobs at 2500 uM GlcN6P” value: under 1e-05 s⁻¹ for the first, under 1e-05 s⁻¹ for the second.

First: AUAAAAGCGCCAGAACUACAGAAAUGUAGUUCACGAGGCGGAGGUUUAUCGAAUUUUCGGGGGAUGCCUUCAAA [G32C A39C C61G C70U]
Second: AUAAAAGCGCCAGAACUACAGAAAUGUAGUUUACGAGGAGGAGGUUUAUCGAAUGGUCGGCGGAUGCCUCCAAA [G32U U55G U56G]
The “self-cleavage kobs at 2500 uM GlcN6P” value of the first is lower: under 1e-05 s⁻¹ for the first, 0.000148 ± 4.3e-05 s⁻¹ for the second.

AUAAAAGCGCCAGAACUACAGAAAUGUAGUUGCCAAGCAGGAGGUUUAUCGUAUUUUCGGCGGACGCGUCCAAA [A33C G35A G38C A52U U65C C68G] and AUAAAAGCGCCAGAACUACAGAAAUGUAGUUUACGAUGAGGAGGUUUAUCGAAUUUUUGGCGGAUGCCUCCAAA [G32U G37U C58U] cannot be ordered by “self-cleavage kobs at 2500 uM GlcN6P” value: under 1e-05 s⁻¹ for the first, under 1e-05 s⁻¹ for the second.

AUAAAAGCGCCAGAACUACAGAAAUGUAGUUUACGAGGAGGGGGUUUAUCGAAUCCUGGGCGGAUGCCUCCAAA [G32U A42G U55C U56C C58G] was tested, and the “self-cleavage kobs at 2500 uM GlcN6P” value was 5.49e-05 ± 1.3e-05 s⁻¹.

Variants of: B1
Experiment: self-cleavage kobs at 10000 uM GlcN6P; higher = faster cleavage; RNA array
Conditions: with glucosamine-6-phosphate
Procedure, shortened: as §1

Going from AUAAAAGCGCCAGAACUACAGAAAUGUAGUUCACGAGGAGGAGGUUUAUCGAACUUUCGGCGGAUGCCUCCAAA [G32C U54C] to AUAAAAGCGCCAGAACUACAGAAAUGUAGUUUACGAGGAGGAGGUUUAUCGAAUGGUCGGCGGAUGCCUCCAAA [G32U U55G U56G], the “self-cleavage kobs at 10000 uM GlcN6P” value rises from 8.23e-05 ± 1.2e-05 s⁻¹ to 0.000376 ± 8.4e-05 s⁻¹ (4.6-fold).
